Data: patent US20200055939A1 (Genentech, published 2020)
Numbering of substitutions follows the chain as printed. Where “and” joins values, the source holds several entries; their conditions need not be identical. Equal entries are not always repeated. Where two headings read alike, the source gives them in different places. Blank lines part the entries; values can stand above or below the binder they belong to.

Legend:
[1] = target: T1, MICA008.His (human MICA*008 alpha 3 domain, His tagged) (human); assay: ELISA, coated antigen
T1 construct: Also used for FPOP (expressed in CHO); also called huMICA*008 alpha 3-his; MICA*008 a3
T1 chain: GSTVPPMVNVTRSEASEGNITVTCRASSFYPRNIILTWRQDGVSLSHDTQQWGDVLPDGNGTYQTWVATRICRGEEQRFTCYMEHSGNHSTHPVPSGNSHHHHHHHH

[2] = target: T2, MICA.008.a3.R202-S297.R202N mIgG2a.Glyco11 (human; mouse, UniProt Q29983 203-297, engineered N-linked glycosylation site R202N); assay: ELISA, coated variant;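 note: ELISA with plates coated at 2 ug/ml with MICA*008 alpha 3 glycosylation variants as murine IgG2a Fc fusions, antibody binding detected by HRP anti-human IgG Fc and TMB absorbance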
T2 construct: not shown: murine IgG2a Fc
T2 chain: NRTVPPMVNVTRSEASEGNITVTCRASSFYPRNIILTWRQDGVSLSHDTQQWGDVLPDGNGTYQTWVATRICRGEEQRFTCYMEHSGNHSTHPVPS

[3] = target: T3, MICA.008.a3.T204-S297.E215N.mIgG2a.Glyco12 (human; mouse, UniProt Q29983 204-297, engineered N-linked glycosylation site E215N); assay: ELISA, coated variant;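 note: ELISA with plates coated at 2 ug/ml with MICA*008 alpha 3 glycosylation variants as murine IgG2a Fc fusions, antibody binding detected by HRP anti-human IgG Fc and TMB absorbance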
T3 construct: not shown: murine IgG2a Fc
T3 chain: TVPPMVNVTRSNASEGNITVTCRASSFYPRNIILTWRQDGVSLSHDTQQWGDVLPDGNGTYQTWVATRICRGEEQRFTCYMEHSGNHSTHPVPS

[4] = target: T4, MICA.008.a3.T204-S297.I236T.mIgG2a.Glyco13 (human; mouse, UniProt Q29983 204-297, engineered N-linked glycosylation site created by I236T); assay: ELISA, coated variant;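 note: ELISA with plates coated at 2 ug/ml with MICA*008 alpha 3 glycosylation variants as murine IgG2a Fc fusions, antibody binding detected by HRP anti-human IgG Fc and TMB absorbance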
T4 construct: not shown: murine IgG2a Fc
T4 chain: T3 chain with N12E, I33T

[5] = target: T5, MICA.008.a3.T204-S297.G243N.mIgG2a.Glyco14 (human; mouse, UniProt Q29983 204-297, engineered N-linked glycosylation site G243N); assay: ELISA, coated variant;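 note: ELISA with plates coated at 2 ug/ml with MICA*008 alpha 3 glycosylation variants as murine IgG2a Fc fusions, antibody binding detected by HRP anti-human IgG Fc and TMB absorbance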
T5 construct: not shown: murine IgG2a Fc
T5 chain: T3 chain with N12E, G40N

[6] = target: T6, MICA.008.a3.T204-S297.C-terminal insert of N298.G299.S300.mIgG2a.Glyco17 (human; mouse, UniProt Q29983 204-297, engineered N-linked glycosylation site at inserted N298); assay: ELISA, coated variant
T6 construct: not shown: murine IgG2a Fc
T6 chain: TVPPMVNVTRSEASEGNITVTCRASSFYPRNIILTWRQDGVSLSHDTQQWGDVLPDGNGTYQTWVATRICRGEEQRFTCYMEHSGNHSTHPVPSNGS

[7] = target: T7, MICA002.His (human MICA*002 alpha 3 domain, His tagged) (human); assay: SPR, antibody captured;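 note: SPR with antibody held by surface-bound anti-Fc while His-tagged alpha three domains flow over, Kd derived by fitting a one-to-one binding model to sensograms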
T7 construct: also called huMICA*002 alpha 3-his
T7 chain: T1 chain with S28G, R32W, I35T, T37S, R73Q

[8] = target: T8, MICA004.His (human MICA*004 alpha 3 domain, His tagged) (human); assay: SPR, antibody captured;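 note: SPR with antibody held by surface-bound anti-Fc while His-tagged alpha three domains flow over, Kd derived by fitting a one-to-one binding model to sensograms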
T8 construct: also called huMICA*004 alpha 3-his
T8 chain: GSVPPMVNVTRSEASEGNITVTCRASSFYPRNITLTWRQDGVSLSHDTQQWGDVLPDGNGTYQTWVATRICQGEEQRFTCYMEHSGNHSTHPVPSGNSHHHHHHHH

[9] = target: T9, MICB005.His (human MICB*005 alpha 3 domain, His tagged) (human); assay: SPR, antibody captured;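 note: SPR with antibody held by surface-bound anti-Fc while His-tagged alpha three domains flow over, Kd derived by fitting a one-to-one binding model to sensograms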
T9 construct: also called huMICB*005 alpha 3-his
T9 chain: T1 chain with R12C, A15V, I35T, D48N, C72R, R73Q, S90G

[10] = target: T10, MICA*008 on MEL-JUSO cells (human, UniProt Q29983 24-317); assay: cell-based or functional assay
T10 chain: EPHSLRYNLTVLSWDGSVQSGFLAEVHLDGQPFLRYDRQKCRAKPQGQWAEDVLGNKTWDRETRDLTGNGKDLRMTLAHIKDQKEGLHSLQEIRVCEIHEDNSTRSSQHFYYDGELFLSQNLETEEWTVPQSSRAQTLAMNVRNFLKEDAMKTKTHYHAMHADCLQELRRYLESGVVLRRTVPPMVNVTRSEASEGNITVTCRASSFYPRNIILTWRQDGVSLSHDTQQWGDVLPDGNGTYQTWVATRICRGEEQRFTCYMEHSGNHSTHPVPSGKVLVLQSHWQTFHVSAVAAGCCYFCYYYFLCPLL

[11] = target: T11, MICA*004 on HCC1534 cells (human, UniProt Q29983 24-383); assay: cell-based or functional assay
[12] = target: T11, MICA*004 on HCC1534 cells; assay: cell-based or functional assay; remark: listed apart in the source
[13] = target: T12, MILL1-MICA chimera.murine IgG2a Fc fusion (mouse MILL1 with grafted human MICA*008 …); assay: ELISA, coated chimera
T12 construct: MICA*008 residues around NGTYQT on the 'back' and in the beta2 microglobulin interface grafted onto murine MILL1; also called MILL1-MICA*008 chimera

[14] = target: T13, MICA.008.a3.T204-S297.E215N.G243N.H248N.R279N.C-terminal insert of N298.G299.S300.mIgG2a.Glyco4 … (human; mouse, engineered N-linked glycosylation sites E215N, G243N, H248N, R279N and inserted N298); assay: ELISA, coated variant
T13 construct: not shown: murine IgG2a Fc

[15] = target: T1, MICA008.His (human MICA*008 alpha 3 …); assay: SPR, antibody captured;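 note: SPR with antibody held by surface-bound anti-Fc while His-tagged alpha three domains flow over, Kd derived by fitting a one-to-one binding model to sensograms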
[16] = target: T14, MICB*005 on HCC1534 cells (human, UniProt Q29980 23-383); assay: cell-based or functional assay
T14 sequence (looked up): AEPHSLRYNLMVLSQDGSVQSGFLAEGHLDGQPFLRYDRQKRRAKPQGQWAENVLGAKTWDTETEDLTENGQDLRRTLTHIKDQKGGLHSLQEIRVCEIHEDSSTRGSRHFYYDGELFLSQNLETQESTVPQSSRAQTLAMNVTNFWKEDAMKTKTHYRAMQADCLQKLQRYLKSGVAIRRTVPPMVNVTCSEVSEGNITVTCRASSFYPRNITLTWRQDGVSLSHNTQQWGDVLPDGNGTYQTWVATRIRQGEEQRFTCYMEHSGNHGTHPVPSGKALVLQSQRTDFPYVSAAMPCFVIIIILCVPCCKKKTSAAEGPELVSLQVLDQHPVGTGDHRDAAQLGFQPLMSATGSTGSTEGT

[17] = target: T14, MICB*005 on HCC1534 cells; assay: cell-based or functional assay; remark: listed apart in the source
[18] = target: T15, MICA.008.a3.T204-S297.H248N.mIgG2a.Glyco15 (human; mouse, UniProt Q29983 204-297, engineered N-linked glycosylation site H248N); assay: ELISA, coated variant
T15 construct: not shown: murine IgG2a Fc
T15 chain: T3 chain with N12E, H45N

[19] = target: T16, MICA.008.a3.T204-S297.R279N.mIgG2a.Glyco16 (human; mouse, UniProt Q29983 204-297, engineered N-linked glycosylation site R279N); assay: ELISA, coated variant
T16 construct: not shown: murine IgG2a Fc
T16 chain: T3 chain with N12E, R76N

[20] = target: T14, MICB*005 on HCC1534 cells; assay: cell-based or functional assay; remark: listed apart in the source
[21] = target: T10, MICA*008 on MEL-JUSO cells; assay: cell-based or functional assay
[22] = target: T11, MICA*004 on HCC1534 cells; assay: cell-based or functional assay; remark: listed apart in the source
[23] = target: MICA*002 on cells (PANC-1; B16-MICA002) (human, UniProt Q29983 24-383); assay: cell-based or functional assay
[24] = target: T1, MICA008.His (human MICA*008 alpha 3 …); assay: SPR (Biacore), MICA*008 alpha-3 domain

binding result [1]: binds | binding result [2]: binds | binding result [3]: binds | binding result [4]: binds | binding result [5]: binds | binding result [6]: binds | Kd [7]: 22 nM | Kd [8]: 8.7 nM | Kd [9]: 16 nM | % max inhibition of shedding [10]: < 10% | % max inhibition of shedding [11]: 50% | EC50 of shedding inhibition [11]: 0.411 µg/mL
B1: 7A3.1.9 (antibody, V domains shown)
VH: QVQLKESGPGLVAPSQSLSITCTVSGFALTGSGVNWVRQPPGKGLEWLGMIWGDGNTDYNSALKSRLSISKDNSKSQIFLKMNSLQTDDTARYYCARGAHYGKRWYFDVWGAGTTVTVSS
VL: DIQMTQTTSSLSASLGDRVTISCSASQGINNYLNWYQQKPDGTVKLLIYYTSSLPSGVPSRFSGSGSGTDYSLTISNLEPEDIATYYCQQYSKLPPTFGGGTKVEIK
notes: Mouse hybridoma antibody; constant regions differ by assay

binding result [1]: binds | binding result [2]: binds | binding result [3]: binds | binding result [4]: binds | binding result [5]: binds | binding result [6]: binds | Kd [7]: 24 nM | Kd [8]: 37 nM | Kd [9]: 18 nM | % max inhibition of shedding [10]: 20% | % max inhibition of shedding [11]: 46% | EC50 of shedding inhibition [11]: 0.681 µg/mL
B2: 1E6.1.3 (antibody, V domains shown)
VH: B1 VH with A28S, K43Q, I78V
VL: B1 VL with S9F, K39R, S53T, T85S
notes: as for B1

maximum inhibition of shedding [12]: ~50% | binding result [13]: binds | binding result [14]: binds | binding result [2]: binds | binding result [3]: binds | Kd [15]: 6.8 nM | Kd [7]: 2.8 nM | Kd [8]: 8.7 nM | Kd [9]: 10 nM | EC50 of shedding inhibition [11]: 0.265 µg/mL and 0.157 µg/mL | EC50 of shedding inhibition [16]: 0.0791 µg/mL | EC50 of shedding inhibition [17]: 0.0724 µg/mL | Max % Inhibition of shedding [17]: 58%
B3: 6E1.1.12 (antibody, V domains shown)
VH: QGQMQQSGAELVKPGASVKLSCKTSGFTFSDNYISWLKQKPGQSLEWIAWIYAGTGGSSYNQKFRDKAQLTVDTSSRTAYMQLSSLTTEDSAIYYCARHDYYGTSGAWFAYWGRGTLVTVSA
VL: DVLMTQTPLSLPVSLGDQASISCRSSQHIVHSNENTYLEWYLQKPGQSPKLLIYKVSNRFSGVPDRFSGSGSGTDFTLKISRVEAEDLGVYYCFQGSHVPWTFGGGTKVEIK
notes: as for B1

binding result [13]: binds | binding result [14]: binds | binding result [2]: binds | binding result [3]: binds | binding result [4]: binds | binding result [5]: binds | binding result [18]: binds | binding result [19]: binds | binding result [6]: binds | Kd [15]: 1.8 nM | Kd [7]: 0.66 nM | Kd [8]: 1.96 nM | Kd [9]: 2.7 nM | EC50 of shedding inhibition [10]: 0.195 µg/mL and 0.112 µg/mL | EC50 of shedding inhibition [11]: 0.107 µg/mL and 0.23 µg/mL | % max inhibition of shedding [16]: 60% | EC50 of shedding inhibition [16]: 0.107 µg/mL
B4: 2E5.2.3 (antibody, V domains shown)
VH: B3 VH with S58T, R65T, D66A, R77S, L83F, R114Q
VL: B3 VL with I21L, H28N, S32I, E34G
notes: as for B1

maximum inhibition of shedding [12]: ~60% | maximum inhibition of shedding [20]: ~50% | binding result [2]: binds | binding result [3]: binds | binding result [4]: binds | binding result [18]: binds | binding result [6]: binds | Kd [15]: 0.42 nM | Kd [7]: 0.67 nM | Kd [8]: 0.49 nM | Kd [9]: 1.09 nM | % max inhibition of shedding [10]: 77% | EC50 of shedding inhibition [10]: 0.0087 µg/mL | % max inhibition of shedding [11]: 81% | EC50 of shedding inhibition [11]: 0.0435 µg/mL | % max inhibition of shedding [16]: 54% | EC50 of shedding inhibition [16]: 0.0128 µg/mL | EC50 of shedding inhibition [21]: 0.0207 µg/mL | Max % Inhibition of shedding [21]: 74% | EC50 of shedding inhibition [22]: 0.0136 µg/mL | Max % Inhibition of shedding [22]: 65% | EC50 of shedding inhibition [17]: 0.0386 µg/mL | Max % Inhibition of shedding [17]: 59% | EC50 of shedding inhibition [23]: 0.0342 µg/mL | Max % Inhibition of shedding [23]: 48% | Kd [24]: 0.5 nM
B5: 1D5 (antibody, V domains shown)
VH: EIQLQQSGPELVKPGASVKVSCKASGYAFTSQNIYWVKQSHGKSLEWIGYIEPYNVVPMYNPKFKGKATLTVDKSSSSAYIHLNSLTSEDSAIYYCARSGSSNFDYWGQGTTLTVSS
VL: EIILTQSPTTMAASPGEKITITCSASSSISSHYLHWYQQKSGFSPKLLIYRTSNLASGVPARFSGSGSGTSYSLTIGTMEAEDVATYYCQQGSSLPLTFGAGTKVEIK
notes: Mouse variable domains; constant regions differ by assay (human IgG1 or mouse IgG2a); also called anti-MIC 1D5
